In US11339383B2, “G proteins” (HEPTARES THERAPEUTICS LIMITED, priority 2016, dated 2022):
Changes are numbered by the printed parent chain. Names may count otherwise.

B1: Mini-Gi146: mini-Gi1 construct 46: N-terminus re-inserted, D249 back to Leu, G217D; SEQ ID NO:110 (protein)
chain: MGHHHHHHENLYFQGTLSAEDKAAVERSKMIDRNLREDGEKAAREVKLLLLGADNSGKSTIVKQMKIIHGGGGGGGGTTGIVETHFTFKDLHFKMFDVGGQRSERKKWIHCFEDVAAIIFCVDLSDYNRMHESMKLFDSICNNKWFTDTSIILFLNKKDLFEEKIKKSPLTICYQEYAGSNTYEEAAAYIQCQFEDLNKRKDTKEIYTHFTCATDTKNAQFIFDAVTDVIIKNNLKDCGLF
modifications: Mini-Gi146
B2: Mini Gs164: A249D and switch III deletion (protein)
chain: MGHHHHHHANKKIEKQLQKDKQVYRATHRLLLLGAGESGKSTIVKQMRILHGGGGGETKFQVDKVNFHMFDVGGQRDERRKWIQCFNDVTAIIFVVDSSSYNRLQEALNLFKSIWNNRWLRTISVILFLNKQDLLAEKVLAGKSKIEDYFPEFARYTTPEDATPEPGEDPRVTRAKYFIRDEFLRISTASGDGRHYCYPHFTCAVDTENIRRVFNDCRDIIQRMHLRQYELL
modifications: MINI GS164
notes: A249D and switch III deletion
B3: Mini Gs169: A249D-S252D-SIII- (mutation list truncated in table) (protein)
chain: B2 chain with S100D, L110D
modifications: MINI GS169
B4: Mini Gs183: G49D-E50N-A249D-S252D-SIII-L272D (protein)
chain: B2 chain with G36D, E37N, S100D, L110D
modifications: MINI GS183
notes: G49D-E50N-A249D-S252D-SIII-L272D
B5: Mini Gs165: A249D-S252D-SIII (protein)
chain: B2 chain with S100D
modifications: MINI GS165
notes: A249D-S252D-SIII
B6: Gαs: purified non-lipidated Gαs subunit (protein, UniProt P63092 2-394, looked up)
Guanine nucleotide-binding …: GCLGNSKTEDQRNEEKAQREANKKIEKQLQKDKQVYRATHRLLLLGAGESGKSTIVKQMRILHVNGFNGEGGEEDPQAARSNSDGEKATKVQDIKNNLKEAIETIVAAMSNLVPPVELANPENQFRVDYILSVMNVPDFDFPPEFYEHAKALWEDEGVRACYERSNEYQLIDCAQYFLDKIDVIKQADYVPSDQDLLRCRVLTSGIFETKFQVDKVNFHMFDVGGQRDERRKWIQCFNDVTAIIFVVASSSYNMVIREDNQTNRLQEALNLFKSIWNNRWLRTISVILFLNKQDLLAEKVLAGKSKIEDYFPEFARYTTPEDATPEPGEDPRVTRAKYFIRDEFLRISTASGDGRHYCYPHFTCAVDTENIRRVFNDCRDIIQRMHLRQYELL
modifications: non-lipidated
notes: purified non-lipidated Gαs subunit
B7: Mini Gs162: mini Gs161 with A249D (protein)
chain: MGHHHHHHANKKIEKQLQKDKQVYRATHRLLLLGAGESGKSTIVKQMRILHGGGGGETKFQVDKVNFHMFDVGGQRDERRKWIQCFNDVTAIIFVVDSSSYNMVIREDNQTNRLQEALNLFKSIWNNRWLRTISVILFLNKQDLLAEKVLAGKSKIEDYFPEFARYTTPEDATPEPGEDPRVTRAKYFIRDEFLRISTASGDGRHYCYPHFTCAVDTENIRRVFNDCRDIIQRMHLRQYELL
modifications: MINI GS162
notes: mini Gs161 with A249D

Experiment: Thermostability of GDP-bound mini G proteins by differential scanning fluorimetry (DSF)
Type: physicochemical
Conditions: for Stability measured by DSF: mini-G protein alone, GDP-bound; for Mini Gs basal Tm (GDP-bound state, DSF): 1 mM GDP, SYPRO-orange, no receptor
Description: SYPRO-orange (15 μl) was added from a 20× stock solution to give a final concentration of 2×. Samples were mixed and 2×50 μl aliquots (duplicates) were transferred to 0.2 ml PCR tubes (Qiagen). Thermostability measurements were performed using a Rotor-Gene Q (Qiagen). Samples were equilibrated for 90 s at 25° C. before ramping from 25 to 99° C. at 4 s/° C. The melting temperature (Tm), corresponding to the inflection point of the curve, was derived from analysis using the Rotor-Gene Q software. Tm values were calculated as the mean±SEM from three independent experiments.
For constructs see FIGS. 29 and 35-37. Expression, purification and stability measurements by differential scanning fluorimetry (DSF) of the mini-G proteins as well as the non-lipidated Gβ1γ2 dimer, were performed following the protocols described in Example 1. The stability of mini-G proteins was also determined in detergent using native DSF (NanoTemper Prometheus). Mini-G proteins (2 mg/ml) in 50 mM HEPES pH 7.5 (KOH), 20 mM MgCl2, 50 mM NaCl, 1 μM GDP were mixed with either no detergent (control), 0.1% LMNG or 0.1% DDM. Samples were incubated on ice (minimum 30 min) prior to heating on the Prometheus (20% excitation, 15° C.-85° C., rate of 2.0° C./min) and the onset of scattering determined.

Row | Molecule | Mini Gs basal Tm (GDP-bound state, DSF) | other results
1 | B1 | – | less stable than mini-Gs by (DSF): 17 °C; Stability measured by DSF: 48 °C; Stability measured by DSF (listed as Gs/i1 46): 47.8 ± 0.3 °C
2 | B2 | 66.5 ± 0.0 (n = 3) ° C. | –
3 | B3 | 67.1 ± 0.0 (n = 3) ° C. | –
4 | B4 | 72.5 ± 0.0 (n = 3) ° C. | –
5 | B5 | 68.7 ± 0.0 (n = 3) ° C. | –
6 | B6 | 50.1 ± 0.1 (n = 3) ° C. | –
7 | B7 | 60.6 ± 0.1 (n = 3) ° C. | –
